Results reported in paper PMC8868134 (Antibiotics, 2022).

Target: T1, MexB (RND inner membrane transporter) (Pseudomonas aeruginosa, UniProt P52002 1-1046)
T1 sequence: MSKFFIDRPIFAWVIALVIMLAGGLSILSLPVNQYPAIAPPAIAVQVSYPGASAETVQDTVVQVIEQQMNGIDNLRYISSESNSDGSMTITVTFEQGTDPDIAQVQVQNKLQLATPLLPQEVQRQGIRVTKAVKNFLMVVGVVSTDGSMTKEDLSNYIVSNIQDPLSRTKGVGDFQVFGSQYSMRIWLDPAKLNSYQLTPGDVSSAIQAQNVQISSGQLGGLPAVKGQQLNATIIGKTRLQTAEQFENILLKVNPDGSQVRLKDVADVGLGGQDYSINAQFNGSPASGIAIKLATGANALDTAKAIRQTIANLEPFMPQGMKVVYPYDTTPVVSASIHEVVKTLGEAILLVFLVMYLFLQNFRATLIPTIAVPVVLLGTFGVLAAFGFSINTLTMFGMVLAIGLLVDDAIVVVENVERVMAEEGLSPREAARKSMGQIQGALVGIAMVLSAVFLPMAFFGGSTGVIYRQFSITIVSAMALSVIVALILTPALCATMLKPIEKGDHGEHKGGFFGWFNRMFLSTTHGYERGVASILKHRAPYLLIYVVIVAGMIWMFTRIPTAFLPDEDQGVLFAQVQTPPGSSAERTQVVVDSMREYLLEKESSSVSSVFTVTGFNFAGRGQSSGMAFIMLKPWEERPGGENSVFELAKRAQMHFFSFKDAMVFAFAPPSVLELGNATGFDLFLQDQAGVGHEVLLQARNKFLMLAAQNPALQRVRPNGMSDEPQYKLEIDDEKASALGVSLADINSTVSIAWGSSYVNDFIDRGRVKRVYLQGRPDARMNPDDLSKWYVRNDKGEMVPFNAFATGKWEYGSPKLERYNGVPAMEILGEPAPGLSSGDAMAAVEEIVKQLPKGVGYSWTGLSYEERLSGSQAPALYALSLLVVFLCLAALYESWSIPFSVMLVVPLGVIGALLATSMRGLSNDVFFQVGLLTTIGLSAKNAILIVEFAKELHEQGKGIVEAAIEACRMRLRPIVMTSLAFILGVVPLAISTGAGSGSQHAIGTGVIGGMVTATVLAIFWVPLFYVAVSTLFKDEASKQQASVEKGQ
Experiment: BLI

B1: MexA wild type (periplasmic adaptor protein of MexA-MexB-OprM) (natural protein)
chain: CGKSEAPPPAQTPEVGIVTLEAQTVTLNTELPGRTNAFRIAEVRPQVNGIILKRLFKEGSDVKAGQQLYQIDPATYEADYQSAQANLASTQEQAQRYKLLVADQAVSKQQYADANAAYLQSKAAVEQARINLRYTKVLSPISGRIGRSAVTEGALVTNGQANAMATVQQLDPIYVDVTQPSTALLRLRRELASGQLERAGDNAAKVSLKLEDGSQYPLEGRLEFSEVSVDEGTGSVTIRAVFPNPNNELLPGMFVHAQLQEGVKQKAILAPQQGVTRDLKGQATALVVNAQNKVELRVIKADRVIGDKWLVTEGLNAGDKIITEGLQFVQPGVEVKTVPAKNVASAQKADAAPAKTDSKG
Kd: 23 µM | koff: 0.0055 s⁻¹
